Measured values as given in paper PMC5397179.

B1: Biotinylated full length PcrA (Geobacillus stearothermophilus), wild type [modified: biotin; biotin] [Geobacillus stearothermophilus] / YvgS/HelD (SF1 helicase), Bacillus subtilis [B. subtilis 168 (endogenous in the cell … (parent)
chain 1: MNFLSEQLLAHLNKEQQEAVRTTEGPLLIMAGAGSGKTRVLTHRIAYLMAEKHVAPWNILAITFTNKAAREMRERVQSLLGGAAEDVWISTFHSMCVRILRRDIDRIGINRNFSILDPTDQLSVMKTILKEKNIDPKKFEPRTILGTISAAKNELLPPEQFAKRASTYYEKVVSDVYQEYQQRLLRNHSLDFDDLIMTTIQLFDRVPDVLHYYQYKFQYIHIDEYQDTNRAQYTLVKKLAERFQNICAVGDADQSIYRWRGADIQNILSFERDYPNAKVILLEQNYRSTKRILQAANEVIEHNVNRKPKRIWTENPEGKPILYYEAMNEADEAQFVAGRIREAVERGERRYRDFAVLYRTNAQSRVMEEMLLKANIPYQIVGGLKFYDRKEIKDILAYLRVIANPDDDLSLLRIINVPKRGIGASTIDKLVRYAADHELSLFEALGELEMIGLGAKAAGALAAFRSQLEQWTQLQEYVSVTELVEEVLDKSGYREMLKAERTIEAQSRLENLDEFLSVTKHFENVSDDKSLIAFLTDLALISDLDELDGTEQAAEGDAVMLMTLHAAKGLEFPVVFLIGMEEGIFPHNRSLEDDDEMEEERRLAYVGITRAEEELVLTSAQMRTLFGNIQMDPPSRFLNEIPAHLLETASRRQAGASRPAVSRPQASGAVGSWKVGDRANHRKWGIGTVVSVRGGGDDQELDIAFPSPIGIKRLLAKFAPIEKV
chain 2: MNQQDKEWKEEQSRIDEVLKELEKKERFLETSAGGLKHDIIGLRKSFWEDVKVNFDDAHEAIETMASIKQQAELLSDREHNHRRMDQQLKRIHQLKKSPYFGRIDFIENGEEQAERIYIGLASCLDEKEEHFLIYDWRAPISSLYYNYSPGKAEYEVPGETIEGEMVLKRQFMIKNGTLKAMFNTDMTIGDEMLQEVLSHHSDTQMKNIVSTIQKEQNQIIRNEKSKILIVQGAAGSGKTSAALQRVAYLLYRHRGVIDAGQIVLFSPNFLFNSYVSSVLPELGEENMEQATFQEYIEHRLGRKFKCESPFDQLEYCLTETKGGDFPTRLAGITWKAGLSFQQFINEYVTRLSSEGMIFKNIIFRGQKLITKEQIQSYFYSLDQNHSIPNRMEQTAKWLLSELNKLEKKERRKDWVVHEAELLDKEDYLDVYKKLQERKRFSESTFNDYQREQQLLAAIIVKKAFKPLKQAVRLLAFLDVTQLYLQLFSGWGGKFQHEKMDAIGELTRSAFTDNKLLYEDAAPFLYMQDLIEGRKKNTKIKHLFIDEAQDYSPFQMAYMRSIFPAASMTVLGDINQSIYAHTINGDQRMDACFEDEPAEYVRLKRTYRSTRQIVEFTKAMLQDGADIEPFNRSGEMPLVVKTEGHESLCQKLAQEIGRLKKKGHETIAVICKTAHQCIQAHAHMSEYTDVRLIHKENQPFQKGVCVIPVYLAKGIEFDAVLVYDASEEHYHTEHDRRLLYTACTRAMHMLAVFYTGEASPFVTAVPPHLYQIAE

Variants of: B1
Assay: pulldown quantified by mass spectrometry
Details: with YvgS/HelD (SF1 helicase), parent: 97, read off a plot

| Variant | screen value |
| --- | --- |
| chain 1 K712A | 9.5 |
| chain 1 L714A | 3.5 |
